Source: patent US20040077572

Tested on: Sleeping Beauty transposase SB10 (synthetic (reconstructed salmonid))
Assay: cell_activity

Lo(AAG) transposon
activity (relative excision): 11%

LoLi-LiLo transposon
activity (relative excision, transposition 101%): 95%

LoLo-RiRo transposon
activity (relative excision, transposition 45%): 46%

LoLo-RoRo transposon
activity (transposition reduced nearly 85%): 15%

RoRi-RiRo transposon
activity (relative excision, transposition 29%): 43%

TANNNNCAGTTGAAGTCGGAAGTTTACATACACTTAAG (double strand) [TAN4Lo transposon]
activity (relative transposition in HeLa): 30%

pT2/SV40Neo transposon
activity (just under four-fold over pT/SV40neo): 4 fold
